The source of these data is patent US20070207498A1, “Design and construction of dimeric concanavalin a mutants” (LifeScan, Inc., priority 2005, published 2007).

The target of assay [1] is T1, Concanavalin A (ConA) dimer mutant pET32 (D58N, N118C, H121C, E192Q), SEQ ID NOS: 12 and 24 (Canavalia ensiformis, UniProt P02866, D221N/E103Q/H32C/N281C).
T1 construct: made in house
Put plainly: FRET response of sensors, Cy3.5-labeled pET32 dimer mutant ConA (donor) with Cy5.5-labeled superoxide dismutase (acceptor). Type of assay: binding. The note with it: 500 mg/dL glucose; Cy5.5-SOD, FIG. 14.
Excerpt: (§1) Functional properties of recombinant ConA have been characterized by Fluorescence Resonance Energy Transfer (FRET) using a PTI QuantaMaster fluorimeter.
Sensors made with Cy3.5-labeled pET32 dimer mutant ConA and Cy5.5-labeled superoxide dismutase (SOD).

Assay [2] addresses T1, Concanavalin A (ConA) dimer mutant pET32 (D58N, N118C, H121C, E192Q), SEQ ID NOS: 12 and 24. Put plainly: FRET response of sensors, Cy3.5-labeled pET32 dimer mutant ConA (donor) with Alexa647-labeled superoxide dismutase (acceptor). Type of assay: binding. The note with it: 500 mg/dL glucose; 6 μM to 24 μM ratio, Alexa647-SOD, FIG. 13.
Excerpt: as §1
Assay [3] has as its target dye and sugar-labeled therapeutic human serum albumin (tHSA) (human) (UniProt P02768). Put plainly: FRET competition assay (FIG. 12), 4-parameter logistic fit; unlabeled tetramer against labeled tetrameric ConA on HSA.
For assay [4] the target is unchanged. Put plainly: FRET competition assay, 384-well plate: unlabeled tetramer displaces labeled tetrameric ConA from HSA; Ki estimated from EC50 and the concentration of labeled tetramer.
The target of assay [5] is T2, dye and sugar-labeled therapeutic human serum albumin (tHSA) (human, UniProt P02768 25-609, sugar-labeled (glycoconjugate); labeled with the acceptor Alexa 647; modified residues not stated).
T2 construct: also called Alexa-HSA; Alexa-labeled Human Serum Albumin
Put plainly: FRET competition assay, 384-well plate: unlabeled competitor displaces labeled tetrameric ConA from HSA; Ki estimated from EC50 and the concentration of labeled tetramer. On the procedure:
Mutant ConA was characterized by FRET. […] The EC₅₀ was calculated using a 4-parameter logistic equation.

Consider `OC[C@H]1OC(O)[C@H](O)[C@@H](O)[C@@H]1O` (some centres unmarked) [glucose], for which the “FRET response to the addition of glucose” value in assay [1] is on record as roughly 266%; in assay [2], “approximately 262%”.

One may read the EC50 as the concentration needed to bring the measured effect to its halfway point. Read a low EC50 as greater potency. By Ki is commonly meant the dissociation constant of the complex between target and ligand, obtained from inhibition or displacement. Turning to “ConA tetramer (tetrameric ConA used as labeled partner and as unlabeled competitor in the competition binding assay) (from UniProt P02866 30-281)”, the EC50 in assay [3] was found to be 110 nM. Moreover, the Ki in assay [4] was 9.1 nM.

B1: pET32 quad mutant ConA (D58N, N118C, H121C, E192Q), stable dimer (other)
chain: ADTIVAVELDTYPNTDIGDPSYPHIGIDIKSVRSKKTAKWNMQNGKVGTAHIIYNSVNKRLSAVVSYPNADSATVSYDVDLDNVLPEWVRVGLSASTGLYKETNTILSWSFTSKLKSCSTCETNALHFMFNQFSKDQKDLILQGDATTGTDGNLELTRVSSNGSPQGSSVGRALFYAPVHIWESSAVVASFQATFTFLIKSPDSHPADGIAFFISNIDSSIPSGSTGRLLGLFPDAN
modifications: unlabeled as competitor in the FIG. 12 assay; labeled with Cy3.5b / Cy3.5 (donor dye) in the FRET and sensor experiments, labeled residues not stated
notes: also called dimer mutant ConA; pET32 dimer ConA mutant
On to B1, for which, in assay [5], the inhibition constant (Ki) was roughly 21 nM.
